# Laboratory results published in patent US20230212244A1 (IMMATICS BIOTECHNOLOGIES, published 2023).
# Biological target: T1, HLA-A*02:01 (human)
# T1 construct: MHC class I monomer made peptide-receptive by UV cleavage of a UV-sensitive ligand; also called peptide-receptive MHC molecules
# Experiment: UV-ligand exchange ELISA (anti-β2m), peptide exchange yield grade
# Excerpt: Candidate peptides for T cell based therapies according to the present invention were further tested for their MHC binding capacity (affinity). The individual peptide-MHC complexes were produced by UV-ligand exchange, where a UV-sensitive peptide is cleaved upon UV-irradiation, and exchanged with the peptide of interest as analyzed. Only peptide candidates that can effectively bind and stabilize the peptide-receptive MHC molecules prevent dissociation of the MHC complexes. To determine the yield of the exchange reaction, an ELISA was performed based on the detection of the light chain (β2m) of stabilized MHC complexes. The assay was performed as generally described in Rodenko et al. (Rodenko et al., 2006).
# 96 well MAXISorp plates (NUNC) were coated over night with 2ug/ml streptavidin in PBS at room temperature, washed 4× and blocked for1h at 37° C. in 2% BSA containing blocking buffer. Refolded HLA-A*02:01/MLA-001 monomers served as standards, covering the range of 15-500 ng/ml. Peptide-MHC monomers of the UV-exchange reaction were diluted 100 fold in blocking buffer. Samples were incubated for 1h at 37° C., washed four times, incubated with 2 ug/ml HRP conjugated anti-β2m for 1h at 37° C., washed again and detected with TMB solution that is stopped with […]. Absorption was measured at 450 nm. Candidate peptides that show a high exchange yield (preferably higher than 50%, most preferred higher than 75 %) are generally preferred for a generation and production of antibodies or fragments thereof, and/or T cell receptors or fragments thereof, as they show sufficient avidity to the MHC molecules and prevent dissociation of the MHC complexes.
row,Binder,peptide exchange yield [%]
1,ALIKQLFEA (also called ZNF-002) [peptide ALIKQLFEA (SEQ ID NO: 1)],50 to 75
2,RMYNKIFAI [peptide RMYNKIFAI (SEQ ID NO: 10)],50 to 75
3,ILLTIKDDTIYL [peptide ILLTIKDDTIYL (SEQ ID NO: 104)],50 to 75
4,YALDLSTFL [peptide YALDLSTFL (SEQ ID NO: 105)],50 to 75
5,SLISEKILL [peptide SLISEKILL (SEQ ID NO: 106)],50 to 75
6,ALLGGGPYML [peptide ALLGGGPYML (SEQ ID NO: 107)],50 to 75
7,SLAELVPGVGGI [peptide SLAELVPGVGGI (SEQ ID NO: 108)],50 to 75
8,ALDGDQMEL [peptide ALDGDQMEL (SEQ ID NO: 109)],20 to 50
9,LLGELPRLLLL [peptide LLGELPRLLLL (SEQ ID NO: 110)],50 to 75
10,KLGQVLIYL [peptide KLGQVLIYL (SEQ ID NO: 112)],20 to 50
11,ILYDLQQNL [peptide ILYDLQQNL (SEQ ID NO: 113)],20 to 50
12,TAVGHALVL [peptide TAVGHALVL (SEQ ID NO: 114)],10 to 20
13,YLFEKTFNM [peptide YLFEKTFNM (SEQ ID NO: 11)],50 to 75
14,SLFDVSHML [peptide SLFDVSHML (SEQ ID NO: 115)],50 to 75
15,LVYQFVHPI [peptide LVYQFVHPI (SEQ ID NO: 116)],20 to 50
16,TLQPVDNSTISL [peptide TLQPVDNSTISL (SEQ ID NO: 117)],20 to 50
17,LLADLKTMV [peptide LLADLKTMV (SEQ ID NO: 118)],50 to 75
18,ILYQTVTGL [peptide ILYQTVTGL (SEQ ID NO: 119)],20 to 50
19,VLYEGVDEV [peptide VLYEGVDEV (SEQ ID NO: 120)],20 to 50
20,SLAPNIISQL [peptide SLAPNIISQL (SEQ ID NO: 121)],50 to 75
21,SLMGMVLKL [peptide SLMGMVLKL (SEQ ID NO: 122)],50 to 75
22,KTLERSYLL [peptide KTLERSYLL (SEQ ID NO: 123)],20 to 50
23,RVLPPSALQSV [peptide RVLPPSALQSV (SEQ ID NO: 124)],50 to 75

row,Binder,peptide exchange yield [%]
1,ALVQGILERV [peptide ALVQGILERV (SEQ ID NO: 12)],50 to 75
2,KLGDFGLLVEL [peptide KLGDFGLLVEL (SEQ ID NO: 125)],≥ 75
3,TLAKYLMEL [peptide TLAKYLMEL (SEQ ID NO: 126)],50 to 75
4,RLAELTVDEFLA [peptide RLAELTVDEFLA (SEQ ID NO: 127)],50 to 75
5,MLDDRAYLV [peptide MLDDRAYLV (SEQ ID NO: 128)],20 to 50
6,VLIDVLKEL [peptide VLIDVLKEL (SEQ ID NO: 129)],50 to 75
7,GLGGSQLIDTHL [peptide GLGGSQLIDTHL (SEQ ID NO: 130)],20 to 50
8,KLLDVVHPA [peptide KLLDWHPA (SEQ ID NO: 131)],20 to 50
9,ALLNAILHSA [peptide ALLNAILHSA (SEQ ID NO: 132)],50 to 75
10,RTFEKIEEV [peptide RTFEKIEEV (SEQ ID NO: 133)],20 to 50
11,GVAGGSILKGV [peptide GVAGGSILKGV (SEQ ID NO: 134)],≥ 75
12,FLLAEDTKV [peptide FLLAEDTKV (SEQ ID NO: 13)],50 to 75
13,KLQEEIPVL [peptide KLQEEIPVL (SEQ ID NO: 135)],20 to 50
14,KLFDIFSQQV [peptide KLFDIFSQQV (SEQ ID NO: 136)],50 to 75
15,QLTEIKPLL [peptide QLTEIKPLL (SEQ ID NO: 137)],50 to 75
16,KQFEGTVEI [peptide KQFEGTVEI (SEQ ID NO: 138)],50 to 75
17,VLLNEILEQV [peptide VLLNEILEQV (SEQ ID NO: 139)],50 to 75
18,LLNEILEQV [peptide LLNEILEQV (SEQ ID NO: 140)],50 to 75
19,AVIEHLERL [peptide AVIEHLERL (SEQ ID NO: 141)],≥ 75
20,SLVQRVETI (also called ECT2-001) [peptide SLVQRVETI (SEQ ID NO: 142)],50 to 75
21,KLSDVWKEL [peptide KLSDVWKEL (SEQ ID NO: 143)],50 to 75
22,LLNDRIWLA [peptide LLNDRIWLA (SEQ ID NO: 144)],50 to 75
23,FLDKPEDVLL [peptide FLDKPEDVLL (SEQ ID NO: 14)],20 to 50

row,Binder,peptide exchange yield [%]
1,LLLEVVKQV (also called LLLEVVKQV) [peptide LLLEWKQV (SEQ ID NO: 145)],50 to 75
2,ALSDETWGL [peptide ALSDETWGL (SEQ ID NO: 146)],20 to 50
3,TLTELRAFL [peptide TLTELRAFL (SEQ ID NO: 147)],≥ 75
4,RLLENMTEVV [peptide … (SEQ ID NO: 148)],50 to 75
5,YQFDKVGILTL [peptide YQFDKVGILTL (SEQ ID NO: 149)],50 to 75
6,RLADLEALKV [peptide RLADLEALKV (SEQ ID NO: 150)],50 to 75
7,SAQGSDVSLTACKV [peptide SAQGSDVSLTACKV (SEQ ID NO: 151)],50 to 75
8,KLLAVIHEL (also called RAD54B-002) [peptide KLLAVIHEL (SEQ ID NO: 152)],20 to 50
9,ILFSEDSTKLFV [peptide ILFSEDSTKLFV (SEQ ID NO: 153)],50 to 75
10,KLPSETIFVGC [peptide KLPSETIFVGC (SEQ ID NO: 154)],50 to 75
11,LQLDKEFQL [peptide LQLDKEFQL (SEQ ID NO: 15)],50 to 75
12,RLLGEEVVRV (also called RLLGEEVVRV) [peptide … (SEQ ID NO: 155)],50 to 75
13,SLMMTIINL [peptide SLMMTIINL (SEQ ID NO: 156)],≥ 75
14,SLIERDLKL [peptide SLIERDLKL (SEQ ID NO: 157)],50 to 75
15,GLLDPSVFHV [peptide GLLDPSVFHV (SEQ ID NO: 158)],50 to 75
16,VLVDDDGIKVV [peptide … (SEQ ID NO: 159)],20 to 50
17,KLLEFDQLQL [peptide KLLEFDQLQL (SEQ ID NO: 160)],50 to 75
18,FLKNELDNV [peptide FLKNELDNV (SEQ ID NO: 161)],50 to 75
19,KLMDYIDEL [peptide KLMDYIDEL (SEQ ID NO: 162)],50 to 75
20,RLLHEVQEL [peptide RLLHEVQEL (SEQ ID NO: 163)],50 to 75
21,KMLDEILLQL [peptide KMLDEILLQL (SEQ ID NO: 164)],≥ 75
